Assay results taken from patent US20240139265A1.

Key:
Assay in all cases: UV peptide exchange + HLA class I ELISA; % of Pos control peptide
Settings in all cases: remark: other sources report otherwise
[1] = target: HLA-A*01:01 class I complex (biotinylated heavy chain with beta2-microglobulin) (human)
[2] = target: HLA-A*02:01 class I complex (biotinylated heavy chain with beta2-microglobulin) (human)
[3] = target: HLA-A*03:01 class I complex (biotinylated heavy chain with beta2-microglobulin) (human)
[4] = target: HLA-A*24:02 class I complex (biotinylated heavy chain with beta2-microglobulin) (human)
[5] = target: HLA-B*07:02 class I complex (biotinylated heavy chain with beta2-microglobulin) (human)

Binder	exchange rate with Pos peptide [1]	exchange rate with Pos peptide [2]	exchange rate with Pos peptide [3]	exchange rate with Pos peptide [4]	exchange rate with Pos peptide [5]
YLRRQKRLK (here or on the partner: biotinylated heavy chain) [P60 9-mer neoantigen peptide … (FOXA1.p.F266L missense)]	3.1%	7.9%	36.6%	0.9%	6.1%
CYLGRQKRF (here or on the partner: biotinylated heavy chain) [P61 9-mer neoantigen peptide … (FOXA1.p.R261G missense)]	1.7%	5.8%	–	90.3%	–
IVWWCPMSR (here or on the partner: biotinylated heavy chain) [P98 9-mer neoantigen peptide … (TP53 (R213D) frameshift)]	2.5%	7.9%	51.1%	-0.1%	6.7%
RAVRRMNTF (here or on the partner: biotinylated heavy chain) [P17 9-mer neoantigen peptide … (MSMB-NOCA4 fusion)]	4.9%	–	3.8%	0.1%	38.7%
RVGNCKHLK (here or on the partner: biotinylated heavy chain) [P82 9-mer neoantigen peptide … (AR-V7 splice variant)]	1.5%	6.3%	58.1%	-0.1%	12.9%
QLIAMDSAI (here or on the partner: biotinylated heavy chain) [P22 9-mer neoantigen peptide … (SLC45A3-ELK4 fusion)]	4.4%	46.9%	4.8%	0%	8.3%

Further lines, results first:

exchange rate with Pos peptide [1]	exchange rate with Pos peptide [2]	exchange rate with Pos peptide [3]	exchange rate with Pos peptide [4]	exchange rate with Pos peptide [5]	Binder
0.1%	85.9%	6%	-0.5%	91.5%	YCMAAPMGL (here or on the partner: biotinylated heavy chain) [P76 9-mer neoantigen peptide … (AR-V3 splice variant)]
2.5%	4.6%	39%	0.1%	7%	LMAQRLLLR (here or on the partner: biotinylated heavy chain) [P97 9-mer neoantigen peptide … (FOXRED2-TXN2 fusion)]
–	89.2%	3.5%	0.5%	8.7%	LLERNSFEV (here or on the partner: biotinylated heavy chain) [P73 9-mer neoantigen peptide … (TP53 (G266E) missense)]
2.5%	11.8%	32.5%	0.2%	–	HVPKILSGK (here or on the partner: biotinylated heavy chain) [P58 9-mer neoantigen peptide … (AR (Q903H) missense)]
2.4%	14.4%	10.3%	-0.4%	64.8%	CPMSRLRLA (here or on the partner: biotinylated heavy chain) [P46 9-mer neoantigen peptide … (TP53 (R213D) frameshift)]
1.1%	64%	2.4%	0.2%	5%	FLFLLLPLS (here or on the partner: biotinylated heavy chain) [P87 9-mer neoantigen peptide … (AR-Intron splice variant)]
4.3%	99.3%	4.4%	0.1%	12.8%	YQFTFDLLI (here or on the partner: biotinylated heavy chain) [P48 9-mer neoantigen peptide … (AR.p.H875Y missense)]
5.2%	8.2%	4.1%	0.1%	91.3%	IPVLTRWPL (here or on the partner: biotinylated heavy chain) [P19 9-mer neoantigen peptide … (TMEM222-LOC644961 fusion)]
2.6%	8.4%	6.8%	0.5%	82.5%	RAKCKFSIL (here or on the partner: biotinylated heavy chain) [P56 9-mer neoantigen peptide … (SPOP(F102C) missense)]
